This passage reports stoichiometry N results from paper PMC3785136.

As usually defined, the stoichiometry N is the number of molecules, sites or subunits per partner or assembly.

The experiment concerns the target human telomerase reverse transcriptase hTERT (WT) (human) (UniProt O14746). The experiment can be described thus: sucrose gradient sedimentation.

The substance “human telomerase reverse transcriptase hTERT (WT) (from UniProt O14746 1-1132) (enzyme)” returned a stoichiometry N of 2.
